Changes are numbered by the printed parent chain.
B1: T5: wheat EPSPS mutant, SEQ ID NO: 24, mutations L216(195)P and S269(247)G (protein)
chain: MATSVAAPAAPAGAEEVVLQPIREISGAVQLPGSKSLSNRILLLSALSEGTTVVDNLLNSEDVHYMLEALEALGLSVEADKVAKRAVVVGCGGRFPVEKDAKEEVKLFLGNAGTAMRPLTAAVVAAGGNATYVLDGVPRMRERPIGDLVVGLQQLGADVDCFLGTNCPPVRINGKGGLPGGKVKLSGSISSQYLSSLLMAAPLALEDVEIEIIDKPISVPYVEMTLKLMEHFGVTAEHSDSWDRFYIKGGQKYKSPGNAYVEGDASSAGYFLAGAAITGGTVTVEGCGTTSLQGDVKFAEVLEMMGAKVTWTDTSVTVTGPPRQPFGRKHLKAVDVNMNKMPDVAMTLAVVALFADGPTAIRDVASWRVKETERMVAIRTELTKLGATVEEGPDYCIITPPEKLNITAIDTYDDHRMAMAFSLAACAEVPVTIRDPGCTRKTFPNYFDVLSTFVKN
B2: T6: wheat EPSPS mutant, SEQ ID NO: 26, mutations L216(195)P, S269(247)G and P118(101)S (protein)
chain: B1 chain with P118S
B3: R0: wild-type rice EPSPS, amino acid sequence SEQ ID NO: 28; control (protein, listed as Oryza sativa)
chain: MASNAAAAAAKAEEIVLQPIREISGAVQLPGSKSLSNRILLLSALSEGTTVVDNLLNSEDVHYMLEALKALGLSVEADKVAKRAVVVGCGGKFPVEKDAKEEVQLFLGNAGTAMRPLTAAVTAAGGNATYVLDGVPRMRERPIGDLVVGLKQLGADVDCFLGTECPPVRVKGIGGLPGGKVKLSGSISSQYLSALLMAAPLALGDVEIEIIDKLISIPYVEMTLRLMERFGVKAEHSDSWDRFYIKGGQKYKSPGNAYVEGDASSASYFLAGAAITGGTVTVQGCGTTSLQGDVKFAEVLEMMGAKVTWTDTSVTVTGPPREPYGKKHLKAVDVNMNKMPDVAMTLAVVALFADGPTAIRDVASWRVKETERMVAIRTELTKLGASVEEGPDYCIITPPEKLNITAIDTYDDHRMAMAFSLAACADVPVTIRDPGCTRKTFPNYFDVLSTFVRN

Tested on: transgenic rice plants
Assay: glyphosate resistance of the EPSPS mutant in transgenic rice plants sprayed with Roundup 41% ammonium glyphosate
Type: in vivo, rice (Nipponbare)
Outline: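 EPSPS mutant genes were cloned into pGVP1 and introduced into Nipponbare rice embryo-derived calluses via Agrobacterium EHA105 (OD 0.2, 10 min infection, 2–3 days co-culture at 25 °C in the dark). Calluses went through recovery, two 14-day screening rounds at 30 °C, two differentiation rounds and rooting to regenerate transgenic plants.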

[1] = 1× dosage 1060 g/hectare glyphosate sprayed, recorded on 10th day
[2] = 2× dosage 2120 g/hectare sprayed to plants surviving 1×, recorded 10 days later
[3] = 5× dosage 5300 g/hectare sprayed to plants surviving 2×, recorded 10 days later
[4] = 20× dosage 21200 g/hectare sprayed to plants surviving 5×, recorded 10 days later

Molecule | %++&+++ (percentage of plant having medium and high glyphosate resistance to the total number of plants observed) [1] | number of plants denoted by + (low glyphosate resistance) [1] | number of plants denoted by ++ (medium glyphosate resistance) [1] | number of plants denoted by +++ (high glyphosate resistance) [1] | number of plants denoted by − (no glyphosate resistance) [1] | glyphosate resistance / survival of the rice transformed by the EPSPS, in words (1× glyphosate dosage) | %++&+++ (percentage of plant having medium and high glyphosate resistance to the total number of plants observed) [2] | number of plants denoted by + (low glyphosate resistance) [2] | number of plants denoted by ++ (medium glyphosate resistance) [2] | number of plants denoted by +++ (high glyphosate resistance) [2] | number of plants denoted by − (no glyphosate resistance) [2] | &++&+++ (percentage of plant having medium and high glyphosate resistance to the total number of plants observed) [3] | number of plants denoted by + (low glyphosate resistance) [3] | number of plants denoted by ++ (medium glyphosate resistance) [3] | number of plants denoted by +++ (high glyphosate resistance) [3] | number of plants denoted by − (no glyphosate resistance) [3] | &++&+++ (percentage of plant having medium and high glyphosate resistance to the total number of plants observed) [4] | number of plants denoted by + (low glyphosate resistance) [4] | number of plants denoted by ++ (medium glyphosate resistance) [4] | number of plants denoted by +++ (high glyphosate resistance) [4] | also measured
B1 | 45.5% | 6 | 3 | 7 | 6 | obviously superior to that of the rice seedlings transformed by T0 | 84.6% | 8 | 4 | 0 | 10 | 18.2% | 5 | 4 | 0 | 13 | 13.6% | 3 | 3 | 0 | glyphosate resistance / survival of the rice transformed by the EPSPS, in words (2× glyphosate dosage): some of the transgenic rice seedlings transformed by T4, T1 and T5 still survived; glyphosate resistance / survival of the rice transformed by the EPSPS, in words (5× glyphosate dosage): some of the transgenic rice seedlings transformed by T4, T1 and T5 still survived; number of plants denoted by − (no glyphosate resistance) [4]: 16
B2 | 85.9% | 7 | 15 | 52 | 4 | had relatively high resistance to glyphosate | 0.0% | 4 | 25 | 41 | 8 | 76.9% | 9 | 37 | 23 | 9 | 71.8% | 7 | 56 | 0 | number of plants denoted by − (no glyphosate resistance) [4]: 15
B3 | 0.0% | 1 | 0 | 0 | 30 | had no resistance, one was seriously damaged, and all the others died | 45.8% | 0 | 0 | 0 | 31 | 0.0% | 0 | 0 | 0 | 31 | 0.0% | 0 | 0 | 0 | number of plants denoted by − (no glyphosate resistance) [4]: 31
